# Laboratory results as given in the RNAGym collection of RNA variant scans (doi:10.1093/molbev/msab373).
# B1: Azoarcus group I ribozyme (parent)
# chain: GUGCCUUGCGCCGGGAAACCACGCAAGGGAUGGUGUCAAAUUCGGCGAAACCUAAGCGCCCGCCCGGGCGUAUGGCAACGCCGAGCCAAGCUUCGGCGCCUGCGCCGAUGAAGGUGUAGAGACUAGACGGCACCCACCUAAGGCAAACGCUAUGGUGAAGGCAUAGUCCAGGGAGUGGCGAAAGUCACACAAACCGG
# Variants of: B1
# Assay: reverse-splicing fitness (ratio to wild type); higher = more active; in vitro selection; Mg2+ level not given
# How it was run: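 An in vitro group I ribozyme library with randomized positions was T7-transcribed and gel-purified. In triplicate, 10 pmol RNA in EPPS pH 7.5 was reacted with 50 pmoles of a 30-nt RNA substrate for 1 h at 37 °C across several added MgCl2 levels (1–48 mM), then stopped with EDTA. Products were reverse transcribed from a substrate-complementary primer, PCR-amplified and sequenced (HiSeq 4000). Fitness is a variant's read proportion after selection over that before, normalised to wild type.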
row,Variant,reverse-splicing fitness
1,C82A A111U A120U C150U U176A,0.00753
2,C82A A111U A120U C150U U176C,0.00953
3,C82A A111U A120U C150U U176G,0.00345
4,C82A A111U A120U C169A,0.00416
5,C82A A111U A120U C169A U176A,0.00348
6,C82A A111U A120U C169A U176C,0.0039
7,C82A A111U A120U C169A U176G,0.00243
8,C82A A111U A120U C169G,0.00434
9,C82A A111U A120U C169G U176A,0.00417
10,C82A A111U A120U C169G U176C,0.00453
11,C82A A111U A120U C169G U176G,0.00236
12,C82A A111U A120U C169U,0.00502
13,C82A A111U A120U C169U U176A,0.00519
14,C82A A111U A120U C169U U176C,0.00461
15,C82A A111U A120U C169U U176G,0.00228
16,C82A A111U A120U U176A,0.00842
17,C82A A111U A120U U176C,0.0105
18,C82A A111U A120U U176G,0.00275
19,C82A A111U A145C,0.28
20,C82A A111U A145C C150A,0.0156
21,C82A A111U A145C C150A C169A,0.00947

row,Variant,reverse-splicing fitness
1,C82A A111U A145C C150A C169A U176A,0.0149
2,C82A A111U A145C C150A C169A U176C,0.00757
3,C82A A111U A145C C150A C169A U176G,0.00855
4,C82A A111U A145C C150A C169G,0.00849
5,C82A A111U A145C C150A C169G U176A,0.029
6,C82A A111U A145C C150A C169G U176C,0.0169
7,C82A A111U A145C C150A C169G U176G,0.00831
8,C82A A111U A145C C150A C169U,0.011
9,C82A A111U A145C C150A C169U U176A,0.0155
10,C82A A111U A145C C150A C169U U176C,0.0116
11,C82A A111U A145C C150A C169U U176G,0.00705
12,C82A A111U A145C C150A U176A,0.0125
13,C82A A111U A145C C150A U176C,0.0157
14,C82A A111U A145C C150A U176G,0.00842
15,C82A A111U A145C C150G,0.0267
16,C82A A111U A145C C150G C169A,0.00825
17,C82A A111U A145C C150G C169A U176A,0.0086
18,C82A A111U A145C C150G C169A U176C,0.0076
19,C82A A111U A145C C150G C169A U176G,0.00755
20,C82A A111U A145C C150G C169G,0.00746
21,C82A A111U A145C C150G C169G U176A,0.00985

row,Variant,reverse-splicing fitness
1,C82A A111U A145C C150G C169G U176C,0.00829
2,C82A A111U A145C C150G C169G U176G,0.00637
3,C82A A111U A145C C150G C169U,0.00999
4,C82A A111U A145C C150G C169U U176A,0.00896
5,C82A A111U A145C C150G C169U U176C,0.0103
6,C82A A111U A145C C150G C169U U176G,0.00633
7,C82A A111U A145C C150G U176A,0.0104
8,C82A A111U A145C C150G U176C,0.0163
9,C82A A111U A145C C150G U176G,0.00428
10,C82A A111U A145C C150U,0.0537
11,C82A A111U A145C C150U C169A,0.0081
12,C82A A111U A145C C150U C169A U176A,0.0133
13,C82A A111U A145C C150U C169A U176C,0.00736
14,C82A A111U A145C C150U C169A U176G,0.00747
15,C82A A111U A145C C150U C169G,0.00788
16,C82A A111U A145C C150U C169G U176A,0.0233
17,C82A A111U A145C C150U C169G U176C,0.0141
18,C82A A111U A145C C150U C169G U176G,0.00743
19,C82A A111U A145C C150U C169U,0.0112
20,C82A A111U A145C C150U C169U U176A,0.0138
21,C82A A111U A145C C150U C169U U176C,0.00945

row,Variant,reverse-splicing fitness
1,C82A A111U A145C C150U C169U U176G,0.00661
2,C82A A111U A145C C150U U176A,0.0254
3,C82A A111U A145C C150U U176C,0.0396
4,C82A A111U A145C C150U U176G,0.0107
5,C82A A111U A145C C169A,0.00733
6,C82A A111U A145C C169A U176A,0.0109
7,C82A A111U A145C C169A U176C,0.00816
8,C82A A111U A145C C169A U176G,0.00702
9,C82A A111U A145C C169G,0.00993
10,C82A A111U A145C C169G U176A,0.0281
11,C82A A111U A145C C169G U176C,0.0185
12,C82A A111U A145C C169G U176G,0.00654
13,C82A A111U A145C C169U,0.0123
14,C82A A111U A145C C169U U176A,0.016
15,C82A A111U A145C C169U U176C,0.0102
16,C82A A111U A145C C169U U176G,0.00582
17,C82A A111U A145C U176A,0.0948
18,C82A A111U A145C U176C,0.126
19,C82A A111U A145C U176G,0.0253
20,C82A A111U A145G,0.313
21,C82A A111U A145G C150A,0.0371
